Assay [1] concerns the target serum sIgE of the patients of the ELISA inhibition study (Example 3) (human). In words: ELISA inhibition: serum pre-incubated with soluble Ara h 2 (0.1, 1, 10 ug/ml); immobilised competitor Ara h 7.0201. (In general: An ELISA detects its analyte on a solid surface through an enzyme-linked reagent.)
The target is the same in assay [2]. Briefly: ELISA inhibition: serum pre-incubated with soluble Ara h 2 (0.1, 1, 10 ug/ml); immobilised competitor Ara h 6.

We go through 1 molecule from EP3244212A1.

B1: Ara h 2 isotype 2.0201, recombinant His6 fusion protein (protein)
chain: MSHHHHHHIEGRTMRQQWELQGDRRCQSQLERANLRPCEQHLMQKIQRDEDSYGRDPYSPSQDPYSPSQDPDRRDPYSPSPYDRRGAGSSQHQERCCNELNEFENNQRCMCEALQQIMENQSDRLQGRQQEQQFKRELRNLPQQCGLRAPQRCDLEVESGGRDRY
On to B1, for which the results for the % inhibition (median over sera) in assay [1] and in assay [2] were 16% and 43%, respectively.
